# Reference: patent US20170184612A1, “USE OF LEUKOCYTES AND NOVEL BIOMARKERS IN THE DIAGNOSIS, CONFIRMATION, AND TREATMENT OF A NEUROLOGICAL DISORDER” (The Trustees of Columbia University in the City of New York, priority 2014, published 2017)
# Columns and labels:
# [1] = system: primary TH+ neurons (SN, VTA, LC); assay: MHC-I induction in murine primary catecholamine neurons, immunofluorescence; type: cell-based, mouse
# Excerpt: To study the mechanisms underlying the preferential display of MHC-I by catecholamine neurons, primary neuronal cultures of >7 days in vitro prepared from 0-3 day old C57BL/6 mice were examined in the studies herein (Sulzer et al., 2008). DA neurons from VTA and SN and NE neurons of the LC were identified by immunolabel for TH. MHC-I staining was examined using an antibody raised against the H-2K^b and H-2D^b class I mouse alloantigens.
# B6.129P2-B2m^tm1Unc/J mice were generated by a targeted disruption of the β2m gene, and have little or no MHC-I protein expression on the cell surface^68. […]
# (§1) Images were captured using a Leica SP5 microscope system. There was no fluorescence bleed-through of secondary antibodies under the conditions used. […]
# (§2) In order to assess the proportion of TH^+ and MAP-2^+ neurons that expressed MHC-I^+, first TH^+ and MAP-2^+ neurons were counted in 24 fields surrounding the border of the well at 20× magnification. The number of TH^+ or MAP-2^+ neurons with intact soma and two or more neurites equal to or greater than the diameter of the cell soma was counted. […]
# [2] = system: hES derived spinal motor neuron (MN) cultures; assay: MHC-I induction in hES-derived motor neurons, immunofluorescence; type: cell-based, human; details: 100 ng/ml, 72h
# Experimental: (§3) hES derived DA neuronal cultures were obtained as described (Kriks et al., 2011). Briefly, H9 human ES cells were subjected to dual SMAD-inhibition followed by exposure to sonic hedgehog, purmorphamine, FGF8 and CHIR99021. Neurons were passaged on day 20, replated on glass-bottom dishes on day 30 at a density of 200.000 cells per 20 μl droplet, and then matured in Neurobasal media with the addition of B27 supplement, GDNF, BDNF, ascorbic acid, cAMP, TGFbeta and DAPT. hES derived spinal motor neuron (MN) cultures expressing EYFP under control of the human synapsin promoter were generated by exposure to dual SMAD-inhibition followed by caudalization with retinoid acid and ventralization through the hedgehog pathway. MN aggregates were replated on day 20 and matured in Neurobasal media with the addition of B27 supplement, GDNF, BDNF, ascorbic acid, cAMP and DAPT.
# (§4) Cultures were treated with human IFN-γ (eBioscience) at a non-toxic concentration for hES (100 ng/ml, 72h). Cultures were then incubated with the MHC-I antibody prior to fixation in 4% paraformaldehyde and double immunofluorescence for TH and MHC-I as above. Micrographs were acquired using a Leica TCS SP5-II inverted confocal microscope.
# [3] = system: hES derived DA neuronal cultures; assay: MHC-I induction in hES-derived DA neurons, immunofluorescence; type: cell-based, human; details: 100 ng/ml, 72h
# Experimental: as §3, §4
# VM DA (TH+) neurons = assay: Antigen processing and presentation, […]-MHC-I immunolabel; type: cell-based, mouse; details: OVA 7 days, then IFN-γ 72 h
# Experimental: Following exposure of SN neuronal cultures to OVA or vehicle for 7 days, neurons were exposed to IFN-γ or saline for 72 h (note that these cultures were never exposed to […] (SEQ ID NO: 9)). The cultures were then double immunolabeled for TH and an antibody that recognizes only the MHC-I complex when is occupied by […] (SEQ ID NO: 9) ([…]-MHC-I). Occasional label of astrocytes, but not neurons, for […]-MHC-I was observed when the cultures were exposed to the vehicle, IFN-γ, or OVA alone (FIG. 5A). […] The results herein indicate that OVA had been processed to […] (SEQ ID NO: 9) within these mixed neuron/astrocyte cultures and loaded into the MHC-I groove within neuronal cytosol, and that the resulting complex was presented on the neuronal plasma membrane.
# IFN-γ (R&D Systems) was used at a range of non-toxic concentrations for neurons or OT-1 cells (10 μg/ml-100 ng/ml, 72h). […]
# as §1, §2
molecule,measurement,setting,value
IFN-γ: recombinant mouse IFN-γ (R&D Systems) (protein) HGTVIESLESLNNYFNSSGIDVEEKSLFLDIWRNWQKDGDMKILQSQIISFYLRLFEVLKDNQAISNNISVIESHLITTFFSNSKAKKDAFMSIAKFEVNNPQVQRQAFNELIRVVHQLLPESSLRKRKRSRC,MHC-I (H-2Kb and H-2Db) immunolabel,"[1]; neurons from β2m deficient (MHC-I null, KO) mice",did not induce MHC-I
same,plasma membrane MHC-I expression on TH+ neurons,[1]; wild type C57BL/6 neurons,induced robust plasma membrane neuronal MHC-I expression
"human IFN-γ: human IFN-γ (eBioscience), proinflammatory cytokine (protein, UniProt P01579 24-161, looked up) Interferon gamma: QDPYVKEAENLKKYFNAGHSDVADNGTLFLGILKNWKEESDRKIMQSQIVSFYFKLFKNFKDDQSIQKSVETIKEDMNVKFFNSNKKKRDDFEKLTNYSVTDLNVQRKAIHELIQVMAELSPAAKTGKRKRSQMLFRG",MHC-I expression in mature motor neurons,[2],no MHC-I expression was observed
same,plasma membrane expression of MHC-I by TH+ neurons,[3],virtually all TH+ neurons
"OVA: chicken OVA, a 385 amino acid foreign protein (protein, UniProt P01012 2-386, looked up) Ovalbumin: GSIGAASMEFCFDVFKELKVHHANENIFYCPIAIMSALAMVYLGAKDSTRTQINKVVRFDKLPGFGDSIEAQCGTSVNVHSSLRDILNQITKPNDVYSFSLASRLYAEERYPILPEYLQCVKELYRGGLEPINFQTAADQARELINSWVESQTNGIIRNVLQPSSVDSQTAMVLVNAIVFKGLWEKAFKDEDTQAMPFRVTEQESKPVQMMYQIGLFRVASMASEKMKILELPFASGTMSMLVLLPDEVSGLEQLESIINFEKLTEWTSSNVMEERKIKVYLPRMKMEEKYNLTSVLMAMGITDVFSSSANLSGISSAESLKISQAVHAAHAEINEAGREVVGSAEAGVDAASVSEEFRADHPFLFCIKHIATNAVLFFGRCVSP",TH+ neurons immunolabeled for SIINFEKL-MHC-I,VM DA (TH+) neurons,~10%
